Results on one substance are retold here after US20240002441A1, “PEPTIDES AND USES THEREOF IN MODULATION OF AMYLOID-BETA PROTEIN DEGRADING PROTEASES” (priority 2020, published 2024).

Experiment [1] deals with T1, NEP (Homo sapiens, UniProt P08473).
T1 construct: purchased R & D systems 1182-ZNC-010
Briefly: QFS plate reader enzyme assay, peptide screen on NEP activity (Example 3). In kind it is biochemical. The following applies: peptide 10 ng/μL, NEP 0.05 ng/μL, 1 h at 37° C.; compared to enzyme alone. As for the experimental part: (§1) Plate reader-based enzyme assays were performed using a quenched fluorescent substrate (QFS) in a 96-well format using a SpectraMAX M4 Microplate reader (Molecular Devices). The increase in fluorescence following addition of QFS (40 μM) was taken as evidence of enzyme activity. Fluorescence was monitored over 2 h at 37° C. using κEx=320 nm and λEm=405 nm. Assays were conducted in black 96-well plates. Specific enzyme activity was expressed as a rate of substrate cleavage calculated using a standard curve of 7-methoxy-coumarin-4-acetic acid.
(§2) In all plate reader-based enzyme assays using QFS, the reaction rate (μmol of substrate cleaved/min) was calculated using linear regression analysis (GraphPad Prism software version 8.01). The reaction rates calculated were used to generate the enzyme kinetic parameters Vmax and Km through non-linear regression analysis (GraphPad Prism software, version 8.01; Michaelis-Menten equation). Where indicated, enzyme activity in the presence of peptide was expressed as a % of the enzyme alone. Data were expressed as mean±SEM and statistical significance was determined using t-tests or one-way ANOVAs followed by Tukey's post-hoc test. P<0.05 was considered as statistically significant. In all assays conducted using 96-well plates, the reaction mixtures in each well were considered an independent experiment.
(§3) SEQ ID NOS: 1, 5 and 9-15 were screened for their effects on NEP and ECE1 using a high-throughput QFS assay using the method in Example 2 and the following procedure. NEP or ECE1 (0.05 ng/μL) was incubated with each peptide (10 ng/μL) for 1 h at 37° C.

Experiment [2] concerns the target T2, ECE1 (Homo sapiens, UniProt P42892).
T2 construct: purchased R & D systems 1784-ZN-010
T2 sequence (P42892 1-770): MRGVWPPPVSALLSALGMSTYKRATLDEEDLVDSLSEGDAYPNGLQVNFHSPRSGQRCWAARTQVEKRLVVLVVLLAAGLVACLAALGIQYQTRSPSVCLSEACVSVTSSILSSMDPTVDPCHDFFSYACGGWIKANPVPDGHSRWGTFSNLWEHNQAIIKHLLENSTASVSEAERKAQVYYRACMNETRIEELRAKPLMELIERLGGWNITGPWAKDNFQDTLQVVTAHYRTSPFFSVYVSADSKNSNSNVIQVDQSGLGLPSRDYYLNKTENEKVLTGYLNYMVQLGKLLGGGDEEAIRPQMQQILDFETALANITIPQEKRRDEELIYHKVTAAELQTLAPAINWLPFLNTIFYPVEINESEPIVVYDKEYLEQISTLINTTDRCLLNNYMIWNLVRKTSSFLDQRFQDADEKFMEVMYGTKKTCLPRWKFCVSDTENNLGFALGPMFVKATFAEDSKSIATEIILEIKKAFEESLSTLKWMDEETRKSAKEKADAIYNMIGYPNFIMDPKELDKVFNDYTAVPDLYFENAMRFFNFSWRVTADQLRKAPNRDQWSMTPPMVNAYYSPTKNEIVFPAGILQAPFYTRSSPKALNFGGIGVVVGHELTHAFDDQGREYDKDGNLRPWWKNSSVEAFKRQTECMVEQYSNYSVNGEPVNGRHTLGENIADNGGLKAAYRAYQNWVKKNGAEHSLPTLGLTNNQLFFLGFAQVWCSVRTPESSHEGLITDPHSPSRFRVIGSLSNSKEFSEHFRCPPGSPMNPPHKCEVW
As to the kind of experiment: QFS plate reader enzyme assay, peptide screen on ECE1 activity (Example 3). In kind it is biochemical. The following applies: peptide 10 ng/μL, ECE1 0.05 ng/μL, 1 h at 37° C.; compared to enzyme alone. The procedure:
as §1, §2, §3

Experiment [3] deals with T1, NEP. The settings on record: Smith A I et al., (2016) Scientific reports 6:22413; cited from earlier work.
Experiment [4] has as its target T2, ECE1. The settings on record: Smith A I et al., (2016) Scientific reports 6:22413; cited from earlier work.

T1 sequence (P08473 whole entry): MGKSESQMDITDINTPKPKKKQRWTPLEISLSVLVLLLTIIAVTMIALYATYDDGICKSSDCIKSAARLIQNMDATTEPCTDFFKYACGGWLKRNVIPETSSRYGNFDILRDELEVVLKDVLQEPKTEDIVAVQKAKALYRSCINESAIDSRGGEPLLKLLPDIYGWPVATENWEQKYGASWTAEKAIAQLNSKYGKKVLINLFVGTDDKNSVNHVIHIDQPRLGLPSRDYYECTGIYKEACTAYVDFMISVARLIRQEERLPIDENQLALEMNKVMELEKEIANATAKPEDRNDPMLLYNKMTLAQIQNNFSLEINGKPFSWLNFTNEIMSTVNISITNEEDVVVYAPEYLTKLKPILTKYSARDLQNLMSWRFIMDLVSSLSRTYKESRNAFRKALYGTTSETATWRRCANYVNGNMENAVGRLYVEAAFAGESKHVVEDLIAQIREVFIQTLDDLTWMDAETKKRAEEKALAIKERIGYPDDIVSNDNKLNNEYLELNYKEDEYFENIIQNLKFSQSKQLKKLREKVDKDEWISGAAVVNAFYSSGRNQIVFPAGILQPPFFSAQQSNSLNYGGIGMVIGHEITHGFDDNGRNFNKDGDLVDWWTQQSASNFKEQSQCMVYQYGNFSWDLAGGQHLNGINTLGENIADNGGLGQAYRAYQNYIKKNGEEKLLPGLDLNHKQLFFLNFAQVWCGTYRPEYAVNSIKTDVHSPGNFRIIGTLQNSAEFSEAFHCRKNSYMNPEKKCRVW

As for H-SLFELGKMILQETGKNPAKS-OH [SEQ ID NO:9], the NEP activity entry with NEP [1] is reported as “significantly stimulate”. Moreover, in the experiment with ECE1 [2], the ECE1 activity entry was “significantly stimulate”. Also, the “NEP activity (previous studies)” value in the experiment with NEP [3] is recorded as “directly increase the activity”. Further, the “ECE1 activity (previous studies)” value with ECE1 [4] is listed as “directly increase the activity”.
